Measurements from publication doi:10.1101/2023.04.17.537135 (bioRxiv, 2023).
Numbering of substitutions follows the chain as printed.

Legend:
Assay in all cases: pull-down
[1] = molecular target: T1, His-tagged AHL10, non-mutated wild type (Arabidopsis thaliana, UniProt O22812 1-351)
T1 sequence (looked up): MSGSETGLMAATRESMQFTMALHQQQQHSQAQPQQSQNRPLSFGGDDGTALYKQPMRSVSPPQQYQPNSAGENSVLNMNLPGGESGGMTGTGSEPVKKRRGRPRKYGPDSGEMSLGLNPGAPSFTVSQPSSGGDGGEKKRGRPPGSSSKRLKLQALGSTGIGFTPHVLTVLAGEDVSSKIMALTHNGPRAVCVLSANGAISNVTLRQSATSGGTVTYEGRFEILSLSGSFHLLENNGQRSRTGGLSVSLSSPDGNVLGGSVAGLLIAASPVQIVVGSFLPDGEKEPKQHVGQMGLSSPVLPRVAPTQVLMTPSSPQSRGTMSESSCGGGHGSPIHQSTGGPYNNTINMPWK

[2] = molecular target: T2, His-tagged AHL10 S313D (phosphomimic) (Arabidopsis thaliana, UniProt O22812 1-351, S313D)
T2 sequence (looked up): T1 sequence (looked up) with S313D

[3] = molecular target: T3, His-tagged AHL10 S314D (phosphomimic) (Arabidopsis thaliana, UniProt O22812 1-351, S314D)
T3 sequence (looked up): T1 sequence (looked up) with S314D

Measured: binding result

B1: GST-tagged RRP6L1 C-terminal 337 amino acids (domain or fragment, Arabidopsis thaliana, UniProt Q0WVE8 301-637, looked up)
chain: YKRSYDVCMQLYEKELWTRDSYLHVYGVQTGNLNAVQLSIVAGLCEWRDRIARADDESTGYVLPNKTLFDIAKEMPIVVAQLRRLLKSKLPYLERNFDAVISVIRRSMQNAAAFEPVVQSLKDRRPETVVEMNIEPKIEKTDTGASASSLSLEKVCVDDSKKQSSGFGVLPLKRKLESDKTVVEKNIEPKIEKTGTEASASSLSSKKVCVDDSKKQSSGFGVLLSKRKFESDNKVKEEVKVSKSKPDKVIIVVDDDDDDDDDESYEQSTKAADALDRVSETPSKGSPSLTQKPKTCNTEVIVLDDDDDSESREDEDMRRRSEKHRRFMNMKRGFLNI
binds: [1] | [2] | [3]

B2: GST-tagged RRP6L1 N-terminal 300 amino acids (domain or fragment, Arabidopsis thaliana, UniProt Q0WVE8 1-300, looked up)
chain: MRFDDPMDEFKRNRKMEEDSKKVIDVKVAESDKGFAKFGKAEVPFHIPTLTKPQEEYKILVDNANNPFEHVLLEKSEDGLRFIHPLEELSVMDFVDRNLSEMRPVKPLPLEETPFKLVEEVKDLEDLAAALQSVEEFAVDLEHNQYRTFQGLTCLMQISTRTEDYIVDIFKLWDHIGPYLRELFKDPKKKKVIHGADRDIIWLQRDFGIYVCNLFDTGQASRVLKLERNSLEFLLKHYCGVAANKEYQKADWRIRPLPDVMKRYAREDTHYLLYIYDVMRMELHTMAKEDEQSDSPLVEV
binds: [1] | [2] | [3]
